This note sets out measurements from PMC8630535.

Holding throughout (details): […]) or PBS pH 8.0, 1 mM TCEP ([…]
Data set [1] has as its system T1, YdaS (Escherichia coli O157:H7 EDL933 (CP-933P cryptic prophage)), ORF:56fdd3d8.
T1 sequence: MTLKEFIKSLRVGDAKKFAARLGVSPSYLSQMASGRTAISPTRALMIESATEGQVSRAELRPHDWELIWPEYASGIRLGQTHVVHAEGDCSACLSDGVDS
Description: EMSA.

Data set [2] concerns T2, PaaR2 (Escherichia coli O157:H7 EDL933 (CP-933P cryptic prophage)), ORF:dc76e4f2.
T2 sequence: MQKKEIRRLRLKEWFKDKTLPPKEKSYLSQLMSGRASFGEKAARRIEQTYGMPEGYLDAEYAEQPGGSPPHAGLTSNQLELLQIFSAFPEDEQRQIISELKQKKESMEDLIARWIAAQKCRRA
Description: EMSA. For orientation: In EMSA bound probe runs differently from free probe, usually more slowly.

Data set [3] relates to YdaS (Escherichia coli O157:H7 EDL933 (CP-933P cryptic prophage)). Description: EMSA.
Data set [4] concerns PaaR2 (Escherichia coli O157:H7 EDL933 (CP-933P cryptic prophage)). The data set can be described thus: EMSA.
The subject of data set [5] is T1, YdaS (Escherichia coli O157:H7 EDL933 (CP-933P cryptic prophage)), ORF:56fdd3d8. Description: DNase I footprinting.
The subject of data set [6] is T2, PaaR2 (Escherichia coli O157:H7 EDL933 (CP-933P cryptic prophage)), ORF:dc76e4f2. Description: DNase I footprinting.

On to “ACCTTCCTCGGTTTAGTGTTTTTTTGCGAGTTTAGTGTTTAATAAACCATTAAGTCAAGTATTTGCTTGTTTAGTGATTACTAAAGATAATTACCAC (double strand)”, for which the binding in data set [1] and in data set [2] was greater than 1 µM each time.
Turning to “full-length promoter/operator region, paaR2-ydaS intergenic region (EMSA)”, the binding in data set [3] and in data set [4] was greater than 1 µM throughout.
Consider “TCTTTAAACCACTCCTTGAGACGTAAACGGCGAATTTCTTTTTTTTGCATGTGGTAATTATCTTTAGTAATCACTAAACAAGCAAATACTTGACTTAATGGTTTATTAAACACTAAACTCGCAAAAAAACACTAAACCGAGGAAGGTATGACATTAAAAGAGTTTATTAAATCATTAAGGGTTGGTGAT (double strand) [footprint fragment, paaR2-ydaS promoter/operator region]”, for which the binding result in data set [5] and in data set [6] was “binds” each time.
Regarding “GCTTTTGCGCAGAAATTTCGCGATATGGCAGGACAAGACGTAAAATTGACAGCAATTTTATTCATATAAAGAATGAATCGCAGTCAAGGTATTCATC (double strand) [random intergenic region (Neg)]”, the binding result in data set [1] and in data set [2] was “no binding” in each case.
